Columns and labels:
Assay in all cases: cell-based or functional assay
RANTES (human) = target: T1, RANTES (human) (human, UniProt P13501 24-91)
T1 sequence (looked up): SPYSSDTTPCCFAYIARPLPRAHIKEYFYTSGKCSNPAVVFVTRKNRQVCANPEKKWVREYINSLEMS

I-TAC (human) = target: T2, I-TAC (human) (human, UniProt O14625 22-94)
T2 sequence (looked up): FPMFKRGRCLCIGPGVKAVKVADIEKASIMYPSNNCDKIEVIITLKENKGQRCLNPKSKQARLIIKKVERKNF

IP-10 (human) = target: T3, IP-10 (human) (human, UniProt P02778 22-98)
T3 sequence (looked up): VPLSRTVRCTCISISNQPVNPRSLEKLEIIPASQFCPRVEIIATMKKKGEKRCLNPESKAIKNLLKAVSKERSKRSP

Eotaxin (human) = Eotaxin (human) (human, UniProt P51671 24-97)
MCP-1 (human) = MCP-1 (human) (human, UniProt P13500 24-99)
MIG (human) = target: T4, MIG (human) (human, UniProt Q07325 23-125)
T4 sequence (looked up): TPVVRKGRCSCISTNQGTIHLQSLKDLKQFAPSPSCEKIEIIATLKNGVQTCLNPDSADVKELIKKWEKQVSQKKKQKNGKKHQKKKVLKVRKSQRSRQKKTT

Measured: Inhibition of chemokine-dependent T cell adhesion to VCAM-1 (++ = 100% inhibition)

Chain of MCP-1 (human) (P13500 24-99 limits assumed): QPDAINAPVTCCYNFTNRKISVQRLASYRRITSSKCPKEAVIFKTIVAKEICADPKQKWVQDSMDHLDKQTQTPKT
Chain of Eotaxin (human) (P51671 24-97 limits assumed): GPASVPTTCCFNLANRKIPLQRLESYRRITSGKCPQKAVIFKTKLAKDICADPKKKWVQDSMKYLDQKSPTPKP

SIPSHSIHSAKA [BKT-P2 peptide]
not listed: MIG (human)
100 % inhibition: all other assays above

LDYPIPQTVLHH [BKT-P46 peptide]
100 % inhibition: MIG (human) | RANTES (human) | I-TAC (human) | MCP-1 (human)
